Source: PMC2654577
Where two headings read alike, the source gives them in different places.

What was measured:
Assay in all cases: enzyme inhibition kinetics
[1] = target: factor XIa catalytic domain K170A (human) (UniProt P03951)
[2] = target: factor XIa catalytic domain K175A (human)
[3] = target: factor XIa catalytic domain K179A (human)
[4] = target: factor XIa catalytic domain R173A (human) (UniProt P03951)
[5] = target: full-length factor XIa autolysis loop variant fXIa-144-149A (human)
[6] = target: factor XIa catalytic domain K170A (human) (UniProt P03951); remark: listed apart in the source
[7] = target: full-length factor XIa autolysis loop variant fXIa-144-149A (human); remark: listed apart in the source
[8] = target: factor XIa catalytic domain K170A (human) (UniProt P03951); remark: listed apart in the source
[9] = target: factor XIa catalytic domain K175A (human); remark: listed apart in the source
[10] = target: factor XIa catalytic domain K179A (human); remark: listed apart in the source
[11] = target: factor XIa catalytic domain R171A (human) (UniProt P03951)
[12] = target: factor XIa catalytic domain R173A (human) (UniProt P03951); remark: listed apart in the source
[13] = target: factor XIa catalytic domain with residues 170, 171 and 173 changed to alanine (human) (UniProt P03951)
[14] = target: factor Xa mutants with substitutions for basic residues in the autolysis loop
[15] = target: full-length factor XIa autolysis loop variant fXIa-144-149A (human); remark: listed apart in the source
[16] = target: recombinant wild type factor XIa catalytic domain (human) (UniProt P03951)
[17] = target: wild type factor Xa (UniProt P00742)
[18] = target: wild type recombinant factor XIa, full length (human)

B1: C1-inhibitor (natural protein)
chain: NPNATSSSSQDPESLQDRGEGKVATTVISKMLFVEPILEVSSLPTTNSTTNSATKITANTTDEPTTQPTTEPTTQPTIQPTQPTTQLPTDSPTQPTTGSFCPGPVTLCSDLESHSTEAVLGDALVDFSLKLYHAFSAMKKVETNMAFSPFSIASLLTQVLLGAGENTKTNLESILSYPKDFTCVHQALKGFTTKGVTSVSQIFHSPDLAIRDTFVNASRTLYSSSPRVLSNNSDANLELINTWVAKNTNNKISRLLDSLPSDTRLVLLNAIYLSAKWKTTFDPKKTRMEPFHFKNSVIKVPMMNSKKYPVAHFIDQTLKAKVGQLQLSHNLSLVILVPQNLKHRLEDMEQALSPSVFKAIMEKLEMSKFQPTLLTLPRIKVTTSQDMLSIMEKLEFFDFSYDLNLCGLTEDPDLQVSAMQHQTVLELTETGVEAAAASAISVARTLLVFEVQQPFLFVLWDQQHKFPVFMGRVYDPRA
k2 (second-order inhibition rate constant) [1]: 10000 M⁻¹ s⁻¹ | k2 (second-order inhibition rate constant) [2]: 7300 M⁻¹ s⁻¹ | k2 (second-order inhibition rate constant) [3]: 8800 M⁻¹ s⁻¹ | k2 (second-order inhibition rate constant) [4]: 9100 M⁻¹ s⁻¹ | k2 (second-order inhibition rate constant) [5]: 19500 M⁻¹ s⁻¹ | k2 (second-order inhibition rate constant) [6]: 1200 M⁻¹ s⁻¹ | k2 (second-order inhibition rate constant) [7]: 19200 M⁻¹ s⁻¹ | k2 (second-order inhibition rate constant) [8]: 734000 M⁻¹ s⁻¹ | k2 (second-order inhibition rate constant) [9]: 730000 M⁻¹ s⁻¹ | k2 (second-order inhibition rate constant) [10]: 778000 M⁻¹ s⁻¹ | k2 (second-order inhibition rate constant) [11]: 261000 M⁻¹ s⁻¹ | k2 (second-order inhibition rate constant) [12]: 667000 M⁻¹ s⁻¹ | k2 (second-order inhibition rate constant) [13]: 430000 M⁻¹ s⁻¹ | fold effect of heparin on inhibition [14]: 4 fold | k2 (second-order inhibition rate constant) [15]: 20600 M⁻¹ s⁻¹ | k2 (second-order inhibition rate constant) [16]: 750000 M⁻¹ s⁻¹ | fold effect of heparin on inhibition [17]: 35 fold | k2 (second-order inhibition rate constant) [18]: 536000 M⁻¹ s⁻¹
